B1: FLASH NTD C54S/C83A/N101A/L104A/N108A, C-terminally hexahistidine-tagged (domain or fragment, human, UniProt Q9UKL3 51-137, looked up)
chain: SRNSLDLYEEILTEEGTAKEATYNDLQVEYGKAQLQMKELMKKFKEIQTQAFSAINEAQSLKKNISALIKTARVEINRKDEEISNLH
notes: FLASH N-terminal domain, human, residues 51-137, C54S/C83A/N101A/L104A/N108A; also called N101A/L104A/N108A mutant
B2: FLASH NTD C54S/C83A/R128A/K129A/D130A, C-terminally hexahistidine-tagged (domain or fragment, human, UniProt Q9UKL3 51-137, looked up)
chain: SRNSLDLYEEILTEEGTAKEATYNDLQVEYGKAQLQMKELMKKFKEIQTQNFSLINENQSLKKNISALIKTARVEINAAAEEISNLH
notes: also called R128A/K129A/D130A mutant
B3: FLASH NTD C54S/C83A/L118A/I119A, C-terminally hexahistidine-tagged (domain or fragment, human, UniProt Q9UKL3 51-137, looked up)
chain: SRNSLDLYEEILTEEGTAKEATYNDLQVEYGKAQLQMKELMKKFKEIQTQNFSLINENQSLKKNISAAAKTARVEINRKDEEISNLH
notes: FLASH N-terminal domain, human, residues 51-137, L118A/I119A in the background of C54S/C83A; also called FLASH NTD L118A/I119A mutant
B4: FLASH NTD C54S/C83A/K88A/K92A/K95A, C-terminally hexahistidine-tagged (domain or fragment, human, UniProt Q9UKL3 51-137, looked up)
chain: SRNSLDLYEEILTEEGTAKEATYNDLQVEYGKAQLQMAELMAKFAEIQTQNFSLINENQSLKKNISALIKTARVEINRKDEEISNLH
notes: also called K88A/K92A/K95A mutant
B5: FLASH NTD C54S/C83A/Y73A/L76A/Y80A, C-terminally hexahistidine-tagged (domain or fragment, human, UniProt Q9UKL3 51-137, looked up)
chain: SRNSLDLYEEILTEEGTAKEATANDAQVEAGKAQLQMKELMKKFKEIQTQNFSLINENQSLKKNISALIKTARVEINRKDEEISNLH
notes: also called Y73A/L76A/Y80A mutant

Key:
[1] = target: the molecule itself; test: AUC; sedimentation velocity (42,000 rpm) and equilibrium, 20 C, 20 mM Tris (pH 8.5), 250 mM NaCl, 5 mM DTT (low-salt condition), 0.05 to 1 mg/ml (complex also 8 mg/ml); global fit by SEDPHAT: monomer-dimer self-association (dimer to monomers) or A + B <-> AB hetero-association
[2] = target: the molecule itself; test: SEC; Superose 12 analytical gel filtration of nickel-purified protein, 20 mM Tris (pH 7.5), 250 mM NaCl, 5 mM DTT, 0.5 mL/min; migration compared with the C54S/C83A control

| Protein | stoichiometry N [1] | binding result [2] |
| --- | --- | --- |
| B1 | ~3 | – |
| B2 | – | binds |
| B3 | – | binds |
| B4 | – | binds |
| B5 | – | binds |
